# Test results taken from US11130803B2, “Isoform-selective TGFβ1 inhibitors and use thereof” (Scholar Rock, Inc., priority 2018, dated 2021).
# Positions count from the first letter of the chain named.
# B1: Ab12: monoclonal antibody; VH SEQ ID NO: 237, VL SEQ ID NO: 241 (antibody, V domains shown)
# VH: QVQLVESGGGVVQPGRSLRLSCAASGFTFSDYAMVWVRQAPGKGLEWVSAISGSGFTTYYADSVKGRFTISRDNSKNTLYLQMNSLRAEDTAVYYCARVSSGHWDFDYWGQGTLVTVSS
# VL: DIQLTQSPSSLSASVGDRVTITCRASQSISSYLNWYQQKPGKAPKLLIYAASNLQSGVPSRFSGSGSGTDFTLTISSLQPEDFATYYCQQTYTVPLTFGGGTKVEIK
# B2: Ab19: monoclonal antibody; VH SEQ ID NO: 250, VL SEQ ID NO: 241 (antibody, V domains shown)
# VH: B1 VH with D31S, Y32F, V35T, F56A, T57A, Y60F, Y108E
# VL: B1 VL
# B3: Ab33: monoclonal antibody; VH SEQ ID NO: 141, VL SEQ ID NO: 15 (antibody, V domains shown)
# VH: EVQLVESGGGLVQPGGSLRLSCAASGFTFSSFSMNWVRQAPGKGLEWVSYISPSADTIYYADSVKGRFTISRDNAKNTLYLQMNSLRAEDTAVYYCAHGVLDYGDMLDPWGQGTLVTVSS
# VL: DIQMTQSPSSLSASVGDRVTITCQASQDITNYLNWYQQKPGKAPKLLIYDASNLETGVPSRFSGSGSGTDFTFTISSLQPEDIATYYCQQADNHPPWTFGGGTKVEIK
# Target: T1, recombinant human GARP-proTGFβ1 complex (Homo sapiens, UniProt P01137)
# T1 construct: made in house
# T1 sequence (P01137 30-390): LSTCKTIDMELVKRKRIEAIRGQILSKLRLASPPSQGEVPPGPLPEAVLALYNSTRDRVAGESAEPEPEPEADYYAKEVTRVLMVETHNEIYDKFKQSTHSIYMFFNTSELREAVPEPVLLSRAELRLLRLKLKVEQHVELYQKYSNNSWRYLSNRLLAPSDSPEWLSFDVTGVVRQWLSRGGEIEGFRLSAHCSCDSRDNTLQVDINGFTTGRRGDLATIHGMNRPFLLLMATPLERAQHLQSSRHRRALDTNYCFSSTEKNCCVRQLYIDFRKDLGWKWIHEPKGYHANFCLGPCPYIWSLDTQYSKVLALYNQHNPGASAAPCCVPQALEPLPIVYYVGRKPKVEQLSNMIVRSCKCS
# T1 sequence (Q14392 20-627 partner limits assumed): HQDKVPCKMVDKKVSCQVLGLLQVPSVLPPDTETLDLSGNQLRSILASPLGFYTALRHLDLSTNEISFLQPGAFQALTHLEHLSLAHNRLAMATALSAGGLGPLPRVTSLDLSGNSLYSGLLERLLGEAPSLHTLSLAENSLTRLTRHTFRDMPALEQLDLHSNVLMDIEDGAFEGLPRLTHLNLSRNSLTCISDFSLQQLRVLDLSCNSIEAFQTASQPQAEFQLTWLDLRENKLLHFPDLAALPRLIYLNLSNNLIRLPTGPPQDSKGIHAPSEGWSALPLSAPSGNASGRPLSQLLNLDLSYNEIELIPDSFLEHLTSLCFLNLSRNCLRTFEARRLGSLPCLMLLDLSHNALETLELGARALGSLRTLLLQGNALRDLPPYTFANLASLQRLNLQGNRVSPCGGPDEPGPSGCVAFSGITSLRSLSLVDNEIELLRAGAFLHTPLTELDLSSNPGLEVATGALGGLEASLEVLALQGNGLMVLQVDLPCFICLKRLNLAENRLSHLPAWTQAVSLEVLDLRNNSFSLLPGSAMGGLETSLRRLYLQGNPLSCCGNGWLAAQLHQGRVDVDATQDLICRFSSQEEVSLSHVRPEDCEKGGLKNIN
# Experiment: Octet (Biolayer Interferometry) in vitro kinetic binding
# Conditions: in M
# Procedure, shortened: (§1)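 Antibody binding kinetics (KD) were determined by biolayer interferometry (Octet QKe) using streptavidin-coated biosensors. Biotinylated human presenting molecule–proTGFβ1 complexes were presented at […].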
row,Molecule,"(E) hGARP, Cell-associated proTGFb1 (KD)"
1,B1,7.01E−09
2,B2,1.12E−08
3,B3,2.65E−10

# Target: T2, recombinant human LRRC33-proTGFβ1 complex (Homo sapiens, UniProt P01137)
# T2 construct: made in house
# T2 sequence (P01137 30-390): as the sequence (P01137 30-390) above
# T2 sequence (Q86YC3 19-650 partner limits assumed): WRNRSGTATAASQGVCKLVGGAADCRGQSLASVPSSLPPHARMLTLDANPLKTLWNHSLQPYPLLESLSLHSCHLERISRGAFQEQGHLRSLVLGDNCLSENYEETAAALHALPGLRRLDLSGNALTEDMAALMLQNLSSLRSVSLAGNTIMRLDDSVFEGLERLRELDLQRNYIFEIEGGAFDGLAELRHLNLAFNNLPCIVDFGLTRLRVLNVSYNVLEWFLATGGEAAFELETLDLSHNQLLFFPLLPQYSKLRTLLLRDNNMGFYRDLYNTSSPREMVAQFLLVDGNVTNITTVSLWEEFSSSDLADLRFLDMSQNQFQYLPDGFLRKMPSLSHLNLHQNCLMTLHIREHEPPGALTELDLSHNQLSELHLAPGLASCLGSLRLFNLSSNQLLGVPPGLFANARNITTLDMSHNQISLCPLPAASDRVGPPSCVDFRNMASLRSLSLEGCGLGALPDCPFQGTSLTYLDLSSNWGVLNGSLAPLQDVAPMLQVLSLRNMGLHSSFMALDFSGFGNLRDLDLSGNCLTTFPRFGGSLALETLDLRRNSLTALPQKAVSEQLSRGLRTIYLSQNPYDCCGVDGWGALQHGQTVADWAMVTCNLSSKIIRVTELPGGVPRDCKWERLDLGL
# Experiment: as above
# Conditions: in M
# Procedure, shortened: as §1
row,Molecule,"(F) hLRRC33, Cell-associated proTGFb1 (KD)"
1,B1,7.75E−10
2,B2,6.92E−10
3,B3,3.39E−10

# Target: T3, recombinant human LTBP1-proTGFβ1 complex (Homo sapiens, UniProt P01137)
# T3 construct: made in house; host or cells: Expi293F cells, transient co-transfection
# T3 sequence (P01137 30-390): as the sequence (P01137 30-390) above
# T3 sequence (Q14766 873-1507 partner): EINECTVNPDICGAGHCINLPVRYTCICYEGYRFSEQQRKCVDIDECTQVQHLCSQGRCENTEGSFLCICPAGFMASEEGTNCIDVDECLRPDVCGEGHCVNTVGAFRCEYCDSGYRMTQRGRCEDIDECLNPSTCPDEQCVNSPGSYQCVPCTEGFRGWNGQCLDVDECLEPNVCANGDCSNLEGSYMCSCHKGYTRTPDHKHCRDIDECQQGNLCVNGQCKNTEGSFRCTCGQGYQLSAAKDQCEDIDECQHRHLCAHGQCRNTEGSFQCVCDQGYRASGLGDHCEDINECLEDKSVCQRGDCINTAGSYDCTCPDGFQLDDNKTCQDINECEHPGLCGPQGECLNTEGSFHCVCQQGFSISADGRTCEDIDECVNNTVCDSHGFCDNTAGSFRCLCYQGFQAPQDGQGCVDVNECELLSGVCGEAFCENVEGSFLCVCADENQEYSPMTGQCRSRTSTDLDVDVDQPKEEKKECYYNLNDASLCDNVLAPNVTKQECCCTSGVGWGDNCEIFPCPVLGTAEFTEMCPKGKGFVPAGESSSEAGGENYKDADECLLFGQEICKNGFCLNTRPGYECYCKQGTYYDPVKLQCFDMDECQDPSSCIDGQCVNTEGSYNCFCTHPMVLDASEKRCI
# Experiment: as above
# Conditions: in M
# Procedure, shortened: as §1
row,Molecule,"(B) hLTBP1, Matrix-associated proTGFb1 (KD)"
1,B1,1.57E−10
2,B2,1.89E−10
3,B3,1.79E−10

# Target: T4, recombinant human LTBP3-proTGFβ1 complex (Homo sapiens, UniProt P01137)
# T4 construct: made in house; host or cells: Expi293F cells, transient co-transfection
# T4 sequence (P01137 30-390): as the sequence (P01137 30-390) above
# T4 sequence (Q9NS15 866-1039 partner limits assumed): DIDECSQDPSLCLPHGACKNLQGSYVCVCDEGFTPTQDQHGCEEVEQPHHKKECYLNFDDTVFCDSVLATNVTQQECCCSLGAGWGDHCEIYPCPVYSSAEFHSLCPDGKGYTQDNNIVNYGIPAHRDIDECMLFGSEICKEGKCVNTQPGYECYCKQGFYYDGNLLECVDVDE
# Experiment: as above
# Conditions: in M
# Procedure, shortened: as §1
row,Molecule,"(C) hLTBP3, Matrix-associated proTGFb1 (KD)"
1,B1,1.83E−10
2,B2,1.56E−10
3,B3,1.11E−10

# Tested on: matrix-associated (LTBP1/LTBP3) and cell-associated (GARP/LRRC33) proTGFβ1 complexes
# Experiment: Octet: average KD and fold bias, matrix- vs cell-associated complexes
# Type: binding, human
# Conditions: average KD of (E) and (F), cell-associated complexes, read-out: (G) Cell AVRG
# Procedure, shortened: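 Monoclonal antibodies were measured for binding affinity, expressed as KD, to cell-surface or cell-associated proTGFβ1 complexes (GARP and LRRC33). The KD values for the two complexes were averaged to give one value for cell-associated affinity. That average was then divided by the matrix-associated average to express fold bias between the complex types.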
row,Molecule,Kd [pM]
1,B1,3890
2,B2,5950
3,B3,302

# Same assay, conditions: ratio of average KD cell-associated / matrix-associated
row,Molecule,(H) G/D (fold bias) [fold]
1,B1,22.897
2,B2,34.47
3,B3,2.083

# Tested on: matrix-associated (LTBP1/LTBP3) and cell-associated (GARP/LRRC33) proTGFβ1 complexes
# Experiment: as above
# Type: binding, human
# Conditions: average KD of (B) and (C), read-out: (D) ECM AVRG
row,Molecule,Kd [pM]
1,B1,170
2,B2,172
3,B3,145
